B1: Pistol ribozyme (parent)
chain: GGGUCGUUGUUCCAUAAUCGCGUGGAUAUGGCACGCAAGUUUCUACCGGGCACCGUAAAUGUCCGACUGGAGCCGUUCGGGCGGCUAUAAACAGACCUCAGGCCCGAAGCGUGGCGGCACCUGCCGCCGGUGGUAAAAAAGAUCGGAAGAGCACACGUCU

Variants of: B1
Assay: aptazyme ON/OFF ratio, guanine; higher = stronger switching; co-transcriptional cleavage with and without guanine

Row | Variant | aptazyme ON/OFF ratio
1 | U7A U8A G9A U10G U11C C13G | 1.08
2 | U7A U8A G9A U10G U11C C13U | 1.03
3 | U7A U8A G9A U10G U11C C13A | 1.08
4 | U7A U8A G9A U10A U11C | 1.04
5 | U7A U8A G9A U10A U11A | 1.15
6 | U7A U8A G9A U10A U11G | 1.29
7 | U7A G9U U11G C12U | 1.52
8 | U7A G9U U11G C12G | 1.15
9 | U7A G9U U11G C12A | 1.11
10 | U7A U8A G9A U11C C12A | 1.16
11 | U7A U8A G9A U11C C12G | 1.1
12 | U7A U8A G9A U11C C12U | 1.06
13 | U7A G9U U10G U11C C12A C13G | 1.12
14 | U7A G9U U10G U11C C12A C13U | 1.24
15 | U7A G9U U10G U11C C12A C13A | 1.14
16 | U7A U8A G9A U10C U11A C12U C13A | 1.1
17 | U7A U8A G9A U10C U11A C12U C13U | 1.03
18 | U7A U8A G9A U10C U11A C12U C13G | 1.16
19 | U7A U8A G9A U10G U11A C12A | 1.15
20 | U7A U8A G9A U10G U11A C12G | 1.13
21 | U7A U8A G9A U10G U11A C12U | 1.03
22 | U7A G9U U10G U11G C12A C13U | 1.21
23 | U7A G9U U10G U11G C12A C13G | 1.12
24 | U7A G9U U10G U11G C12A C13A | 1.11

Row | Variant | aptazyme ON/OFF ratio
25 | U7A G9U U10G U11C | 1.06
26 | U7A G9U U10G U11G | 1.1
27 | U7A U8A G9A U11A C13U | 1.19
28 | U7A U8A G9A U11A C13G | 1.11
29 | U7A U8A G9A U11A C13A | 1.2
30 | U7A U8A G9A U10A C12A C13A | 1.11
31 | U7A U8A G9A U10A C12A C13G | 1.23
32 | U7A U8A G9A U10A C12A C13U | 1.09
33 | U7A U8A G9A U10G U11A C12U C13A | 1.13
34 | U7A U8A G9A U10G U11A C12U C13U | 1.1
35 | U7A U8A G9A U10G U11A C12U C13G | 1.16
36 | U7A U8A G9A U11A | 1.16
37 | U7A U8A G9A U11C | 1.03
38 | U7A U8A G9A C12A | 1.46
39 | U7A U8A G9A C12U | 1.32
40 | U7A U8A G9A C12G | 1.4
41 | U7A G9U U11G C12A C13G | 1.36
42 | U7A G9U U11G C12A C13U | 1.22
43 | U7A G9U U11G C12A C13A | 1.18
44 | U7A U8A G9A C12A C13G | 1.06
45 | U7A U8A G9A C12A C13U | 1.07
46 | U7A U8A G9A C12A C13A | 1.06
47 | U7A U8A G9A U11A C12A C13G | 1.21
48 | U7A U8A G9A U11A C12A C13U | 1.07

Row | Variant | aptazyme ON/OFF ratio
49 | U7A U8A G9A U11A C12A C13A | 1.17
50 | U7A U8A G9A U10G U11A C12A C13A | 1.02
51 | U7A U8A G9A U10G U11A C12A C13U | 1.2
52 | U7A U8A G9A U10G U11A C12A C13G | 1.18
53 | U7A G9U U11G C13U | 1.31
54 | U7A G9U U11G C13A | 1.15
55 | U7A G9U U11G C13G | 1.04
56 | U7A U8A G9A U10A U11A C12U | 1.17
57 | U7A U8A G9A U10A U11A C12G | 1.27
58 | U7A U8A G9A U10A U11A C12A | 1.26
59 | U7A G9U U11C C12G C13U | 1.12
60 | U7A G9U U11C C12G C13A | 1.11
61 | U7A G9U U11C C12G C13G | 1.12
62 | U7A U8A G9A U10G U11A C13U | 0.974
63 | U7A U8A G9A U10G U11A C13A | 1.01
64 | U7A U8A G9A U10G U11A C13G | 1.03
65 | U7A U8A G9A U10G U11G C13U | 1.07
66 | U7A U8A G9A U10G U11G C13A | 1.19
67 | U7A U8A G9A U10G U11G C13G | 1.21
68 | U7A U8A G9A U10A U11G C12U C13U | 1.3
69 | U7A U8A G9A U10A U11G C12U C13A | 1.3
70 | U7A U8A G9A U10A U11G C12U C13G | 1.24
71 | U7A U8A G9A U10A U11C C12G C13G | 1.3
72 | U7A U8A G9A U10A U11C C12G C13U | 1.1

Row | Variant | aptazyme ON/OFF ratio
73 | U7A U8A G9A U10A U11C C12G C13A | 1.11
74 | U7A U8A C12A C13A | 1.22
75 | U7A U8A C12A C13U | 1.5
76 | U7A U8A C12A C13G | 1.12
77 | U7A U8A | 2.94
78 | U7A U8A G9A U11A C12U | 1.35
79 | U7A U8A G9A U11A C12A | 1.26
80 | U7A U8A G9A U11A C12G | 1.24
81 | U7A G9U U11G C12U C13U | 1.08
82 | U7A G9U U11G C12U C13A | 1.35
83 | U7A G9U U11G C12U C13G | 1.3
84 | U7A U8A G9A U10A U11G C13U | 1.16
85 | U7A U8A G9A U10A U11G C13A | 1.17
86 | U7A U8A G9A U10A U11G C13G | 1.18
87 | U7A U8A G9A U10C C12U | 1.23
88 | U7A U8A G9A U10C C12A | 1.1
89 | U7A U8A G9A U10C C12G | 1.05
90 | U7A U8A G9A U10C U11A C12A C13U | 1.13
91 | U7A U8A G9A U10C U11A C12A C13A | 1.11
92 | U7A U8A G9A U10C U11A C12A C13G | 1.06
93 | U7A U8A C12U C13G | 1.24
94 | U7A U8A C12U C13U | 1.38
95 | U7A U8A C12U C13A | 1.29
96 | U7A U8A G9A U10G C12U | 1.14

Row | Variant | aptazyme ON/OFF ratio
97 | U7A U8A G9A U10G C12G | 1.32
98 | U7A U8A G9A U10G C12A | 1.18
99 | U7A U8A G9A U11A C12G C13G | 1.28
100 | U7A U8A G9A U11A C12G C13U | 1.25
101 | U7A U8A G9A U11A C12G C13A | 1.14
102 | U7A U8A G9A U10G U11A | 1.02
103 | U7A U8A G9A U10G U11C | 1.04
104 | U7A U8A G9A U10G U11G | 1.07
105 | U7A G9U U11C C13U | 1.12
106 | U7A G9U U11C C13G | 1.08
107 | U7A G9U U11C C13A | 1.15
108 | U7A U8A G9A U10G | 1.31
109 | U7A U8A G9A U10A | 1.46
110 | U7A U8A G9A U10C | 1.52
111 | U7A U8A G9A U10C U11C C12G C13U | 1
112 | U7A U8A G9A U10C U11C C12G C13A | 1.08
113 | U7A U8A G9A U10C U11C C12G C13G | 1.07
114 | U7A U8A G9A U10A U11G C12G C13A | 1.25
115 | U7A U8A G9A U10A U11G C12G C13U | 1.59
116 | U7A U8A G9A U10A U11G C12G C13G | 1.32
117 | U7A G9U U11A C12A C13U | 1.19
118 | U7A G9U U11A C12A C13G | 1.16
119 | U7A G9U U11A C12A C13A | 1.39
120 | U7A U8A G9A U10G U11G C12G C13A | 1.5

Row | Variant | aptazyme ON/OFF ratio
121 | U7A U8A G9A U10G U11G C12G C13U | 1.44
122 | U7A U8A G9A U10G U11G C12G C13G | 1.55
123 | U7A U8A G9A C12U C13U | 1.17
124 | U7A U8A G9A C12U C13G | 1.12
125 | U7A U8A G9A C12U C13A | 1.11
126 | U7A U8A G9A U10C U11A C12G C13A | 1.08
127 | U7A U8A G9A U10C U11A C12G C13U | 1.1
128 | U7A U8A G9A U10C U11A C12G C13G | 1.11
129 | U7A U8A G9A U11C C13A | 1.06
130 | U7A G9U U11A C12G | 1.35
131 | U7A G9U U11A C12U | 1.34
132 | U7A G9U U11A C12A | 1.28
133 | U7A U8A G9A U10C U11C C12A | 1.18
134 | U7A U8A G9A U10C U11C C12G | 1.05
135 | U7A U8A G9A U10C U11C C12U | 1.04
136 | U7A G9U U11A C12G C13G | 1.12
137 | U7A G9U U11A C12G C13A | 1.08
138 | U7A G9U U11A C12G C13U | 1.25
139 | U7A U8A G9A U10C U11A | 1.22
140 | U7A U8A G9A U10C U11G | 1.14
141 | U7A U8A G9A U10C U11C | 1.03
142 | U7A U8A G9A U10A C13U | 1.17
143 | U7A U8A G9A U10A C13A | 1.12
144 | U7A U8A G9A U10A C13G | 1.05

Row | Variant | aptazyme ON/OFF ratio
145 | U7A U8A G9A U11C C12A C13U | 1.22
146 | U7A U8A G9A U11C C12A C13G | 1.14
147 | U7A U8A G9A U11C C12A C13A | 1.17
148 | U7A G9U U10G U11G C12G C13U | 1.45
149 | U7A G9U U10G U11G C12G C13A | 1.23
150 | U7A G9U U10G U11G C12G C13G | 1.4
151 | U7A U8A G9A U10C C12G C13G | 1.03
152 | U7A U8A G9A U10C C12G C13A | 1.11
153 | U7A U8A G9A U10C C12G C13U | 1.08
154 | U7A U8A G9A U10C U11G C12G C13A | 1.11
155 | U7A U8A G9A U10C U11G C12G C13G | 1.15
156 | U7A U8A G9A U10C U11G C12G C13U | 1.08
157 | U7A G9U U10G U11C C12U C13A | 1.29
158 | U7A G9U U10G U11C C12U C13G | 1.19
159 | U7A G9U U10G U11C C12U C13U | 1.22
160 | U7A G9U U11A C13A | 1.12
161 | U7A G9U U11A C13G | 1.08
162 | U7A G9U U11A C13U | 1.1
163 | U7A G9U U10G U11C C12A | 1.21
164 | U7A G9U U10G U11C C12U | 1.06
165 | U7A G9U U10G U11C C12G | 1.21
166 | U7A U8A G9A U10C U11C C12U C13A | 1.06
167 | U7A U8A G9A U10C U11C C12U C13U | 1.05
